# Measurements: the Immune Epitope Database (IEDB)
# Key:
# [1] = molecular target: HLA-A*03:01; assay: IEDB peptide-MHC binding, purified MHC/competitive/fluorescence; filed as Kd, often an IC50 or EC50 that approximates it; ≥ and ≤ were set here for values at or beyond the usual limits of such assays; conditions: source organism: Cryptosporidium parvum Iowa II
# [2] = molecular target: HLA-B*14:02; assay: as above; conditions: source organism: Cryptosporidium parvum Iowa II
# [3] = molecular target: HLA-B*53:01; assay: as above; conditions: source organism: Cryptosporidium parvum Iowa II
# [4] = molecular target: HLA-A*26:01; assay: as above; conditions: source organism: Cryptosporidium parvum Iowa II
# [5] = molecular target: HLA-A*11:01; assay: as above; conditions: source organism: Cryptosporidium parvum Iowa II
# [6] = molecular target: HLA-B*40:01; assay: as above; conditions: source organism: Cryptosporidium parvum Iowa II
# [7] = molecular target: HLA-B*39:01; assay: as above; conditions: source organism: Cryptosporidium parvum Iowa II
# [8] = molecular target: HLA-A*29:02; assay: as above; conditions: source organism: Cryptosporidium parvum Iowa II
# [9] = molecular target: HLA-B*51:01; assay: as above; conditions: source organism: Cryptosporidium parvum Iowa II
# [10] = molecular target: HLA-B*44:02; assay: as above; conditions: source organism: Cryptosporidium parvum Iowa II
# [11] = molecular target: HLA-A*68:02; assay: as above; conditions: source organism: Cryptosporidium parvum Iowa II
# [12] = molecular target: HLA-A*24:03; assay: as above; conditions: source organism: Cryptosporidium parvum Iowa II
# [13] = molecular target: HLA-A*30:02; assay: as above; conditions: source organism: Cryptosporidium parvum Iowa II
# [14] = molecular target: HLA-B*07:02; assay: as above; conditions: source organism: Cryptosporidium parvum Iowa II
# [15] = molecular target: HLA-A*23:01; assay: as above; conditions: source organism: Cryptosporidium parvum Iowa II
# [16] = molecular target: HLA-B*15:01; assay: as above
# [17] = molecular target: HLA-B*46:01; assay: as above; conditions: source organism: Cryptosporidium parvum Iowa II
# [18] = molecular target: HLA-A*01:01; assay: as above; conditions: source organism: Cryptosporidium parvum Iowa II
# [19] = molecular target: HLA-B*27:05; assay: as above; conditions: source organism: Cryptosporidium parvum Iowa II
# [20] = molecular target: HLA-A*66:01; assay: as above; conditions: source organism: Cryptosporidium parvum Iowa II
# [21] = molecular target: HLA-B*18:01; assay: as above; conditions: source organism: Cryptosporidium parvum Iowa II
# [22] = molecular target: HLA-A*30:01; assay: as above; conditions: source organism: Cryptosporidium parvum Iowa II
# [23] = molecular target: HLA-B*27:03; assay: as above; conditions: source organism: Cryptosporidium parvum Iowa II
# [24] = molecular target: HLA-B*08:01; assay: as above; conditions: source organism: Cryptosporidium parvum Iowa II
# [25] = molecular target: HLA-C*12:03; assay: IEDB peptide-MHC binding, purified MHC/direct/fluorescence; filed as Kd, often an IC50 or EC50 that approximates it; ≥ and ≤ were set here for values at or beyond the usual limits of such assays; conditions: source organism: Cryptosporidium parvum Iowa II
# [26] = molecular target: HLA-A*03:01; assay: as above; conditions: source organism: Mycobacterium tuberculosis
# [27] = molecular target: HLA-B*48:01; assay: as above; conditions: source organism: Mycobacterium tuberculosis
# [28] = molecular target: HLA-A*31:01; assay: as above; conditions: source organism: Mycobacterium tuberculosis
# [29] = molecular target: HLA-B*15:17; assay: as above; conditions: source organism: Mycobacterium tuberculosis
# [30] = molecular target: HLA-A*11:01; assay: as above; conditions: source organism: Mycobacterium tuberculosis
# [31] = molecular target: HLA-B*40:01; assay: as above; conditions: source organism: Mycobacterium tuberculosis
# [32] = molecular target: HLA-B*51:01; assay: as above; conditions: source organism: Mycobacterium tuberculosis
# [33] = molecular target: HLA-B*58:01; assay: as above; conditions: source organism: Mycobacterium tuberculosis
# [34] = molecular target: HLA-B*46:01; assay: as above; conditions: source organism: Mycobacterium tuberculosis
# [35] = molecular target: HLA-A*01:01; assay: as above; conditions: source organism: Mycobacterium tuberculosis
# [36] = molecular target: HLA-A*02:01; assay: as above; conditions: source organism: Mycobacterium tuberculosis
# [37] = molecular target: HLA-B*27:05; assay: as above; conditions: source organism: Mycobacterium tuberculosis
# [38] = molecular target: HLA-B*38:01; assay: as above; conditions: source organism: Mycobacterium tuberculosis str. Haarlem
# [39] = molecular target: HLA-B*57:01; assay: as above; conditions: source organism: Mycobacterium tuberculosis
# [40] = molecular target: HLA-B*18:01; assay: as above; conditions: source organism: Mycobacterium tuberculosis
# [41] = molecular target: HLA-A*69:01; assay: as above; conditions: source organism: Mycobacterium tuberculosis
sequence,measurement,setting,value
FTWQHNYYL,Kd,[1],≥ 20 µM
same,Kd,[2],≥ 20 µM
same,Kd,[3],≥ 5 µM
same,Kd,[4],≥ 20 µM
same,Kd,[5],≥ 5 µM
same,Kd,[6],≥ 5 µM
same,Kd,[7],≥ 20 µM
same,Kd,[8],0.0509 µM
same,Kd,[9],≥ 20 µM
same,Kd,[10],≥ 5 µM
same,Kd,[11],≤ 0.001 µM
same,Kd,[12],0.041 µM
same,Kd,[13],≥ 5 µM
same,Kd,[14],≥ 5 µM
same,Kd,[15],0.149 µM
same,Kd,[16]; source organism: Cryptosporidium parvum Iowa II,≥ 20 µM
same,Kd,[17],≥ 20 µM
same,Kd,[18],0.463 µM
same,Kd,[19],≥ 5 µM
same,Kd,[20],≥ 5 µM
same,Kd,[21],≥ 20 µM
same,Kd,[22],≥ 5 µM
same,Kd,[23],≥ 20 µM
same,Kd,[24],≥ 5 µM
same,Kd,[25],0.335 µM
VPRENATAF,Kd,[16]; source organism: Mycobacterium tuberculosis variant bovis BCG str. Pasteur 1173P2,≥ 20 µM
same,Kd,[26],≥ 20 µM
same,Kd,[27],≥ 20 µM
same,Kd,[28],≥ 20 µM
same,Kd,[29],≥ 20 µM
same,Kd,[30],≥ 20 µM
same,Kd,[31],≥ 20 µM
same,Kd,[32],≥ 20 µM
same,Kd,[33],≥ 20 µM
same,Kd,[34],15.9 µM
same,Kd,[35],≥ 20 µM
same,Kd,[36],≥ 20 µM
same,Kd,[37],≥ 20 µM
same,Kd,[38],≥ 20 µM
same,Kd,[39],≥ 20 µM
same,Kd,[40],0.598 µM
same,Kd,[41],≥ 20 µM
